Source: patent US20210395318A1 (Molecular Partners, published 2021)

B1: SMA014 (designed binder)
chain: MRGSHHHHHHGSDLGEKLLVAALYGQDDEVRELLKAGADVNAKDQWGLTPLHKAALQGHLEIVEVLLKAGADVNAKDERGHTPLHWAARFGHLEIVEVLLKAGADVNAQDQKGYTPADLAALWGHEDIAEVLQKAAGSPTPTPTTPTPTPTTPTPTPTGSDLGKKLLQAARAGQLDEVRELLKAGADVNAKDTWGFTPLHIAAESGHLEIVEVLLKAGADVNAKDVQGRTPLHIAAHSGHLEIVEVLLKAGADVNAKDFRGWTPLHLAAWSGHLEIVEILLKAGADVNAQDKSGKTPADLAARAGHQDIAEVLQKAA
B2: SMA091 (designed binder)
chain: MRGSHHHHHHGSDLGKKLLEAARAGQDDEVRELLKAGADVNAKDYFSHTPLHLAARNGHLKIVEVLLKAGADVNAKDFAGKTPLHLAAADGHLEIVEVLLKAGADVNAQDIFGKTPADIAADAGHEDIAEVLQKAAGSPTPTPTTPTPTPTTPTPTPTGSDLGEKLLVAALYGQDDEVRELLKAGADVNAKDQWGLTPLHKAALQGHLEIVEVLLKAGADVNAKDERGHTPLHWAARFGHLEIVEVLLKAGADVNAQDQKGYTPADLAALWGHEDIAEVLQKAAGSPTPTPTTPTPTPTTPTPTPTGSDLGKKLLQAARAGQLDEVRELLKAGADVNAKDTWGFTPLHIAAESGHLEIVEVLLKAGADVNAKDVQGRTPLHIAAHSGHLEIVEVLLKAGADVNAKDFRGWTPLHLAAWSGHLEIVEILLKAGADVNAQDKSGKTPADLAARAGHQDIAEVLQKAAGSPTPTPTTPTPTPTTPTPTPTGSDLGKKLLQAARAGQLDEVRELLKAGADVNAKDTWGFTPLHIAAESGHLEIVEVLLKAGADVNAKDVQGRTPLHIAAHSGHLEIVEVLLKAGADVNAKDFRGWTPLHLAAWSGHLEIVEILLKAGADVNAQDKSGKTPADLAARAGHQDIAEVLQKAA
B3: SMA105 (designed binder)
chain: MRGSHHHHHHGSDLGEKLLVAALYGQDDEVRELLKAGADVNAKDQWGLTPLHKAALQGHLEIVEVLLKAGADVNAKDERGHTPLHWAARFGHLEIVEVLLKAGADVNAQDQKGYTPADLAALWGHEDIAEVLQKAAGSPTPTPTTPTPTPTTPTPTPTGSDLGKKLLQAARAGQLDEVRELLKAGADVNAKDTWGFTPLHIAAESGHLEIVEVLLKAGADVNAKDVQGRTPLHIAAHSGHLEIVEVLLKAGADVNAKDFRGWTPLHLAAWSGHLEIVEILLKAGADVNAQDKSGKTPADLAARAGHQDIAEVLQKAAGSPTPTPTTPTPTPTTPTPTPTGSDLGKKLLQAARAGQLDEVRELLKAGADVNAKDTWGFTPLHIAAESGHLEIVEVLLKAGADVNAKDVQGRTPLHIAAHSGHLEIVEVLLKAGADVNAKDFRGWTPLHLAAWSGHLEIVEILLKAGADVNAQDKSGKTPADLAARAGHQDIAEVLQKAAGSPTPTPTTPTPTPTTPTPTPTGSDLGKKLLQAARAGQLDEVRELLKAGADVNAKDTWGFTPLHIAAESGHLEIVEVLLKAGADVNAKDVQGRTPLHIAAHSGHLEIVEVLLKAGADVNAKDFRGWTPLHLAAWSGHLEIVEILLKAGADVNAQDKSGKTPADLAARAGHQDIAEVLQKAA
B4: AS579 (designed binder)
chain: MRGSHHHHHHGSDLGKKLLEAARAGQDDEVRELLKAGADVNAKDYFSHTPLHLAARNGHLKIVEVLLKAGADVNAKDFAGKTPLHLAAADGHLEIVEVLLKAGADVNAQDIFGKTPADIAADAGHEDIAEVLQKAAGSPTPTPTTPTPTPTTPTPTPTGSDLGKKLLEAARAGQDDEVRELLKAGADVNAKDYFSHTPLHLAARNGHLKIVEVLLKAGADVNAKDFAGKTPLHLAAADGHLEIVEVLLKAGADVNAQDIFGKTPADIAADAGHEDIAEVLQKAAGSPTPTPTTPTPTPTTPTPTPTGSDLGEKLLVAALYGQDDEVRELLKAGADVNAKDQWGLTPLHKAALQGHLEIVEVLLKAGADVNAKDERGHTPLHWAARFGHLEIVEVLLKAGADVNAQDQKGYTPADLAALWGHEDIAEVLQKAAGSPTPTPTTPTPTPTTPTPTPTGSDLGKKLLQAARAGQLDEVRELLKAGADVNAKDTWGFTPLHIAAESGHLEIVEVLLKAGADVNAKDVQGRTPLHIAAHSGHLEIVEVLLKAGADVNAKDFRGWTPLHLAAWSGHLEIVEILLKAGADVNAQDKSGKTPADLAARAGHQDIAEVLQKAAGSPTPTPTTPTPTPTTPTPTPTGSDLGKKLLQAARAGQLDEVRELLKAGADVNAKDTWGFTPLHIAAESGHLEIVEVLLKAGADVNAKDVQGRTPLHIAAHSGHLEIVEVLLKAGADVNAKDFRGWTPLHLAAWSGHLEIVEILLKAGADVNAQDKSGKTPADLAARAGHQDIAEVLQKAA
B5: SMA099 (designed binder)
chain: MRGSHHHHHHGSDLGKKLLEAARAGQDDEVRELLKAGADVNAKDYFSHTPLHLAARNGHLKIVEVLLKAGADVNAKDFAGKTPLHLAAADGHLEIVEVLLKAGADVNAQDIFGKTPADIAADAGHEDIAEVLQKAAGSPTPTPTTPTPTPTTPTPTPTGSDLGEKLLVAALYGQDDEVRELLKAGADVNAKDQWGLTPLHKAALQGHLEIVEVLLKAGADVNAKDERGHTPLHWAARFGHLEIVEVLLKAGADVNAQDQKGYTPADLAALWGHEDIAEVLQKAAGSPTPTPTTPTPTPTTPTPTPTGSDLGKKLLQAARAGQLDEVRELLKAGADVNAKDTWGFTPLHIAAESGHLEIVEVLLKAGADVNAKDVQGRTPLHIAAHSGHLEIVEVLLKAGADVNAKDFRGWTPLHLAAWSGHLEIVEILLKAGADVNAQDKSGKTPADLAARAGHQDIAEVLQKAAGSPTPTPTTPTPTPTTPTPTPTGSDLGKKLLQAARAGQLDEVRELLKAGADVNAKDTWGFTPLHIAAESGHLEIVEVLLKAGADVNAKDVQGRTPLHIAAHSGHLEIVEVLLKAGADVNAKDFRGWTPLHLAAWSGHLEIVEILLKAGADVNAQDKSGKTPADLAARAGHQDIAEVLQKAAGSPTPTPTTPTPTPTTPTPTPTGSDLGKKLLEAARAGQDDEVRELLKAGADVNAKDYFSHTPLHLAARNGHLKIVEVLLKAGADVNAKDFAGKTPLHLAAADGHLEIVEVLLKAGADVNAQDIFGKTPADIAADAGHEDIAEVLQKAA
B6: SMA095 (designed binder)
chain: MRGSHHHHHHGSDLGKKLLEAARAGQDDEVRELLKAGADVNAKDYFSHTPLHLAARNGHLKIVEVLLKAGADVNAKDFAGKTPLHLAAADGHLEIVEVLLKAGADVNAQDIFGKTPADIAADAGHEDIAEVLQKAAGSPTPTPTTPTPTPTTPTPTPTGSDLGEKLLVAALYGQDDEVRELLKAGADVNAKDQWGLTPLHKAALQGHLEIVEVLLKAGADVNAKDERGHTPLHWAARFGHLEIVEVLLKAGADVNAQDQKGYTPADLAALWGHEDIAEVLQKAAGSPTPTPTTPTPTPTTPTPTPTGSDLGKKLLQAARAGQLDEVRELLKAGADVNAKDTWGFTPLHIAAESGHLEIVEVLLKAGADVNAKDVQGRTPLHIAAHSGHLEIVEVLLKAGADVNAKDFRGWTPLHLAAWSGHLEIVEILLKAGADVNAQDKSGKTPADLAARAGHQDIAEVLQKAAGSPTPTPTTPTPTPTTPTPTPTGSDLGKKLLEAARAGQDDEVRELLKAGADVNAKDYFSHTPLHLAARNGHLKIVEVLLKAGADVNAKDFAGKTPLHLAAADGHLEIVEVLLKAGADVNAQDIFGKTPADIAADAGHEDIAEVLQKAA

Tests used:
Assay in all cases: cell-based or functional assay
[1] = target: T1, human CD40 on primary human B cells or human monocyte-derived dendritic cells (human, UniProt P25942 21-277)
[2] = target: T1, human CD40 on primary human B cells or …; remark: listed apart in the source
[3] = target: T1, human CD40 on primary human B cells or …; remark: listed apart in the source

T1 sequence (P25942 21-277 H80K/K81H limits assumed): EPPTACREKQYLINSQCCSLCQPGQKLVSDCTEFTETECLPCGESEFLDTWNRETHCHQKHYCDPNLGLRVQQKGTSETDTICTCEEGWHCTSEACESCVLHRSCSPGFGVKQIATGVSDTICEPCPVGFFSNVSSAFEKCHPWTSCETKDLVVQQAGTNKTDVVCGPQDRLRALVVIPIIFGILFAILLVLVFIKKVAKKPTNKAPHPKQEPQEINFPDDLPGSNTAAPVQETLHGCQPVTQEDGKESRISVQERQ

| Binder | EC50, % CD86, human B cells with FAP-CHO cells, w HSA [1] [nM] | EC50, % CD86, human B cells with FAP-CHO cells, w/o HSA [1] [nM] | EC50, MFI CD86, human B cells with FAP-CHO cells, w HSA [1] [nM] | EC50, MFI CD86, human B cells with FAP-CHO cells, w/o HSA [1] [nM] | Efficacy [MFI at highest dose], MFI CD86, human B cells with FAP-CHO cells, w HSA [2] [MFI] | Efficacy [MFI at highest dose], MFI CD86, human B cells with FAP-CHO cells, w/o HSA [2] [MFI] | Efficacy at highest dose, % CD86, human B cells with FAP-CHO cells, w HSA [2] [%] | Efficacy at highest dose, % CD86, human B cells with FAP-CHO cells, w/o HSA [2] [%] | Efficacy [MFI at highest dose], MFI CD86, human B cells with WT-CHO cells (no FAP), w HSA [3] [MFI] | Efficacy [MFI at highest dose], MFI CD86, human B cells with WT-CHO cells (no FAP), w/o HSA [3] [MFI] | Efficacy at highest dose, % CD86, human B cells with WT-CHO cells (no FAP), w HSA [3] [%] | Efficacy at highest dose, % CD86, human B cells with WT-CHO cells (no FAP), w/o HSA [3] [%] |
| --- | --- | --- | --- | --- | --- | --- | --- | --- | --- | --- | --- | --- |
| B1 | 6.15 | 4.21 | 7.7 | 8.46 | 2190 | 2440 | 47 | 48.4 | 310 | 294 | 13.3 | 13.2 |
| B2 | 2.98 | 0.76 | 8.05 | 3.93 | 2980 | 6230 | 75.6 | 78.2 | 296 | 290 | 43.1 | 47.8 |
| B3 | – | 0.11 | – | 0.33 | – | 5560 | – | 87.2 | – | 672 | – | 69.2 |
| B4 | 10.2 | 2.27 | 23.1 | 10 | 1780 | 4860 | 71.9 | 83 | 242 | 252 | 40.1 | 42 |
| B5 | 7.5 | 4.68 | 19.4 | 18.2 | 1720 | 4950 | 71.7 | 84.4 | 274 | 289 | 42.5 | 47.4 |
| B6 | – | 89.8 | – | 288 | 232 | 773 | – | 28.7 | 306 | 299 | 13.7 | 12.5 |
